Each block holds one molecule with its values, some of them ahead of it.
B3: Seq No. 2-RFc (PD-1 variant PD1_56# fused to rabbit IgG Fc) (Fc fusion)
chain: PGWFLDSPDRPWNPPTFSPALLVVTEGDNATFTCSFSNTSESFVLNWYRMSPSNQTDKLAAFPEDRSQPGQDCRFRVTQLPNGRDFHMSVVRARRNDSGTYLCGAISLSTPVWIKESLRAELRVTERRAEVPTAH
notes: Signal peptide 1-20 left out; also called variant 1; Mut1/56#; not shown: rabbit IgG Fc (RFc) of vector pcDNA3.4-RFc

Experiments:
[1] = biological target: Seq No. 1-RFc (wild-type PD-1 fused to rabbit IgG Fc) (human; rabbit) (UniProt Q15116); test: SPR Biacore T200
[2] = biological target: Seq No. 2-RFc (PD-1 variant PD1_56# fused to rabbit IgG Fc) (human; rabbit) (UniProt Q15116); test: SPR Biacore T200
[3] = biological target: Seq No. 3-RFc (PD-1 variant PD1_56#-2 fused to rabbit IgG Fc) (human; rabbit) (UniProt Q15116); test: SPR Biacore T200
[4] = biological target: Seq No. 4-RFc (PD-1 variant PD1_56#-3 fused to rabbit IgG Fc) (human; rabbit) (UniProt Q15116); test: SPR Biacore T200
[5] = biological target: Seq No. 5-RFc (PD-1 variant PD1_56#-15 fused to rabbit IgG Fc) (human; rabbit) (UniProt Q15116); test: SPR Biacore T200
[6] = biological target: Seq No. 6-RFc (PD-1 variant PD1_56#-16 fused to rabbit IgG Fc) (human; rabbit) (UniProt Q15116); test: SPR Biacore T200
[7] = biological target: Seq No. 7-RFc (PD-1 variant PD1_56#-108 fused to rabbit IgG Fc) (human; rabbit) (UniProt Q15116); test: SPR Biacore T200
[8] = biological target: wild-type human PD-1 (hPD-1) on cells (human); test: cell-based or functional assay
[9] = biological target: Seq No. 1-RFc (wild-type PD-1 fused to rabbit IgG Fc) (human; rabbit) (UniProt Q15116); test: SPR Biacore T200; antibody stationary phase
[10] = biological target: Seq No. 2-RFc (PD-1 variant PD1_56# fused to rabbit IgG Fc) (human; rabbit) (UniProt Q15116); test: SPR Biacore T200; antibody stationary phase
[11] = biological target: Seq No. 3-RFc (PD-1 variant PD1_56#-2 fused to rabbit IgG Fc) (human; rabbit) (UniProt Q15116); test: SPR Biacore T200; antibody stationary phase
[12] = biological target: Seq No. 4-RFc (PD-1 variant PD1_56#-3 fused to rabbit IgG Fc) (human; rabbit) (UniProt Q15116); test: SPR Biacore T200; antibody stationary phase
[13] = biological target: Seq No. 5-RFc (PD-1 variant PD1_56#-15 fused to rabbit IgG Fc) (human; rabbit) (UniProt Q15116); test: SPR Biacore T200; antibody stationary phase
[14] = biological target: Seq No. 6-RFc (PD-1 variant PD1_56#-16 fused to rabbit IgG Fc) (human; rabbit) (UniProt Q15116); test: SPR Biacore T200; antibody stationary phase
[15] = biological target: Seq No. 7-RFc (PD-1 variant PD1_56#-108 fused to rabbit IgG Fc) (human; rabbit) (UniProt Q15116); test: SPR Biacore T200; antibody stationary phase
[16] = biological target: T1, PD-L1 fuse-expressed with an Fc derived from human IgG1 (human, UniProt Q9NZQ7 19-239); test: flow cytometry, human T cells
T1 construct: Bought reagent; also called PD-L1-Fc; hPD-L1-Fc; not shown: Fc of human IgG1
T1 sequence (Q9NZQ7 19-239 limits assumed): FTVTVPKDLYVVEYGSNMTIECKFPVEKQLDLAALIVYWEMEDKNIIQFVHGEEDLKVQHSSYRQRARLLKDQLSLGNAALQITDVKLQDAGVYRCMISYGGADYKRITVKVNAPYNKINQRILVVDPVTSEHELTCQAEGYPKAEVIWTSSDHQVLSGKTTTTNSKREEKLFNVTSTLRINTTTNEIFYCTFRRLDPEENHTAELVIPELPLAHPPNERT

[17] = biological target: T2, PD-L2 fuse-expressed with an Fc derived from human IgG1 (human, UniProt Q9BQ51 20-219, limits assumed); test: flow cytometry, human T cells
T2 construct: Bought reagent; also called hPD-L2-Fc; not shown: Fc of human IgG1
T2 sequence (looked up): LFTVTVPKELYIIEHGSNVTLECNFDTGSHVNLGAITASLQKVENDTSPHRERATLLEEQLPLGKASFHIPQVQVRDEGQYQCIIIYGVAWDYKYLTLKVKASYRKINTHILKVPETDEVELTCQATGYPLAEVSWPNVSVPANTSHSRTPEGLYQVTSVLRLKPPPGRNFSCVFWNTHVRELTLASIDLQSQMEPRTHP

[18] = biological target: T1, PD-L1 fuse-expressed with an Fc derived …; test: SPR Biacore T200
[19] = biological target: T2, PD-L2 fuse-expressed with an Fc derived …; test: SPR Biacore T200
[20] = biological target: T1, PD-L1 fuse-expressed with an Fc derived …; test: SPR Biacore T200; PD1-RFc mobile phase
[21] = biological target: T2, PD-L2 fuse-expressed with an Fc derived …; test: SPR Biacore T200; PD1-RFc mobile phase
[22] = biological target: B3; test: SPR Biacore T200

Molecule: B3
Kd [18]: 0.457 nM
Kd [19]: 1.17 nM
koff [20]: 0.00129 s⁻¹
kon [20]: 2.82e+06 M⁻¹ s⁻¹
koff [21]: 0.00657 s⁻¹
kon [21]: 5.6e+06 M⁻¹ s⁻¹

B4: Seq No. 4-RFc (PD-1 variant PD1_56#-3 fused to rabbit IgG Fc) (Fc fusion)
chain: PGWFLDSPDRPWNPPTFSPALLVVTEGDNATFTCSFSNTSESFVLNWYRMSPSNQTDKLAAFPWMFCFPGQDCRFRVTQLPNGRDFHMSVVRARRNDSGTYLCGAISLSTPVWIKESLRAELRVTERRAEVPTAH
notes: Signal peptide 1-20 left out; several higher bands in non-reducing SDS-PAGE; also called variant 3; Mut3/56#-3; not shown: rabbit IgG Fc (RFc) of vector pcDNA3.4-RFc
Kd [18]: 39.6 nM
Kd [19]: 296 nM
koff [20]: 0.00266 s⁻¹
kon [20]: 67400 M⁻¹ s⁻¹
koff [21]: 0.0019 s⁻¹
kon [21]: 6420 M⁻¹ s⁻¹

B5: Seq No. 6-RFc (PD-1 variant PD1_56#-16 fused to rabbit IgG Fc) (Fc fusion)
chain: PGWFLDSPDRPWNPPTFSPALLVVTEGDNATFTCSFSNTSESFVLNWYRMSPSNQTDKLAAFPEDFFTVSQDCRFRVTQLPNGRDFHMSVVRARRNDSGTYLCGAISLSTPVWIKESLRAELRVTERRAEVPTAH
notes: Signal peptide 1-20 left out; several higher bands in non-reducing SDS-PAGE; also called variant 5; PD1 variant 5 (56#-16); not shown: rabbit IgG Fc (RFc) of vector pcDNA3.4-RFc
Kd [18]: 0.657 nM
Kd [19]: 0.798 nM
koff [20]: 0.00153 s⁻¹
kon [20]: 2.32e+06 M⁻¹ s⁻¹
koff [21]: 0.00483 s⁻¹
kon [21]: 6.05e+06 M⁻¹ s⁻¹

B7: Seq No. 5-RFc (PD-1 variant PD1_56#-15 fused to rabbit IgG Fc) (Fc fusion)
chain: PGWFLDSPDRPWNPPTFSPALLVVTEGDNATFTCSFSNTSESFVLNWYRMSPSNQTDKLAAFPEDFRNCTQDCRFRVTQLPNGRDFHMSVVRARRNDSGTYLCGAISLSTPVWIKESLRAELRVTERRAEVPTAH
notes: Signal peptide 1-20 left out; also called variant 4; Mut4/56#-15; not shown: rabbit IgG Fc (RFc) of vector pcDNA3.4-RFc
Kd [18]: 2.25 nM
Kd [19]: 4.53 nM
koff [20]: 0.00343 s⁻¹
kon [20]: 1.52e+06 M⁻¹ s⁻¹
koff [21]: 0.0096 s⁻¹
kon [21]: 2.12e+06 M⁻¹ s⁻¹

B8: Seq No. 3-RFc (PD-1 variant PD1_56#-2 fused to rabbit IgG Fc) (Fc fusion)
chain: PGWFLDSPDRPWNPPTFSPALLVVTEGDNATFTCSFSNTSESFVLNWYRMSPSNQTDKLAAFPFLFNLPGQDCRFRVTQLPNGRDFHMSVVRARRNDSGTYLCGAISLSTPVWIKESLRAELRVTERRAEVPTAH
notes: Signal peptide 1-20 left out; several higher bands in non-reducing SDS-PAGE; also called variant 2; Mut2/56#-2; not shown: rabbit IgG Fc (RFc) of vector pcDNA3.4-RFc
Kd [18]: 4.12 nM
Kd [19]: 0.00296 nM
koff [21]: 1.25e-05 s⁻¹
kon [21]: 4.22e+06 M⁻¹ s⁻¹

Next, values leading:

Kd [1]: 0.0135 nM
Kd [2]: 0.085 nM
Kd [3]: 1.78 nM
Kd [4]: 2.94 nM
Kd [5]: 0.567 nM
Kd [6]: 0.315 nM
Kd [7]: 0.0492 nM
IL-2 concentration (pg/ml) at 0.8 nM [8]: 432 pg/mL
IL-2 concentration (pg/ml) at 1.6 nM [8]: 440 pg/mL
IL-2 concentration (pg/ml) at 3.2 nM [8]: 440 pg/mL
IL-2 concentration (pg/ml) at 6.4 nM [8]: 56.1 pg/mL
IL-2 concentration (pg/ml) at 12.8 nM [8]: 36.9 pg/mL
IL-2 concentration (pg/ml) at 25.6 nM [8]: 47.7 pg/mL
IL-2 concentration (pg/ml) at 51.2 nM [8]: 80.5 pg/mL
IL-2 concentration (pg/ml) at 102.4 nM [8]: 126 pg/mL
koff [9]: 4.21e-05 s⁻¹
kon [9]: 3.12e+06 M⁻¹ s⁻¹
koff [10]: 0.000174 s⁻¹
kon [10]: 2.05e+06 M⁻¹ s⁻¹
koff [11]: 0.00105 s⁻¹
kon [11]: 588000 M⁻¹ s⁻¹
koff [12]: 0.00203 s⁻¹
kon [12]: 691000 M⁻¹ s⁻¹
koff [13]: 0.0003 s⁻¹
kon [13]: 530000 M⁻¹ s⁻¹
koff [14]: 0.000836 s⁻¹
kon [14]: 2.66e+06 M⁻¹ s⁻¹
koff [15]: 0.000109 s⁻¹
kon [15]: 2.21e+06 M⁻¹ s⁻¹
Molecule: Tilelizumab (antibody)

binding result [16]: binds
binding result [17]: binds
B1: PD-1 variant PD1_56#-16 on cells (receptor)
chain: PGWFLDSPDRPWNPPTFSPALLVVTEGDNATFTCSFSNTSESFVLNWYRMSPSNQTDKLAAFPEDFFTVSQDCRFRVTQLPNGRDFHMSVVRARRNDSGTYLCGAISLSTPVWIKESLRAELRVTERRAEVPTAHPSPSPRPAGQFQTLVVGVVGGLLGSLVLLVWVLAVIRSKRSRLLHSDYMNMTPRRPGPTRKHYQPYAPPRDFAAYRS
notes: On 293T cells and human T cells, from pLV2-PD1-CD28; signal peptide 1-20 left out; also called Mut5

binding result [16]: binds
binding result [17]: binds
B2: PD-1 variant PD1_56#-108 on cells (receptor)
chain: PGWFLDSPDRPWNPPTFSPALLVVTEGDNATFTCSFSNTSESFVLNWYRMSPSNQTDKLAAFPEDRINRSQDCRFRVTQLPNGRDFHMSVVRARRNDSGTYLCGAISLSTPVWIKESLRAELRVTERRAEVPTAHPSPSPRPAGQFQTLVVGVVGGLLGSLVLLVWVLAVIRSKRSRLLHSDYMNMTPRRPGPTRKHYQPYAPPRDFAAYRS
notes: On 293T cells and human T cells, from pLV2-PD1-CD28; signal peptide 1-20 left out; also called Mut6

Kd [18]: 0.384 nM
Kd [19]: 0.336 nM
koff [20]: 0.000771 s⁻¹
kon [20]: 2.01e+06 M⁻¹ s⁻¹
koff [21]: 0.00356 s⁻¹
kon [21]: 1.06e+07 M⁻¹ s⁻¹
B6: Seq No. 7-RFc (PD-1 variant PD1_56#-108 fused to rabbit IgG Fc) (Fc fusion)
chain: PGWFLDSPDRPWNPPTFSPALLVVTEGDNATFTCSFSNTSESFVLNWYRMSPSNQTDKLAAFPEDRINRSQDCRFRVTQLPNGRDFHMSVVRARRNDSGTYLCGAISLSTPVWIKESLRAELRVTERRAEVPTAH
notes: Signal peptide 1-20 left out; also called variant 6; not shown: rabbit IgG Fc (RFc) of vector pcDNA3.4-RFc

Kd [22]: 0.395 nM
B9: Toripalimab (antibody, V domains shown)
VH: QGQLVQSGAEVKKPGASVKVSCKASGYTFTDYEMHWVRQAPIHGLEWIGVIESETGGTAYNQKFKGRVTITADKSTSTAYMELSSLRSEDTAVYYCAREGITTVATTYYWYFDVWGQGTTVTVSS
VL: DVVMTQSPLSLPVTLGQPASISCRSSQSIVHSNGNTYLEWYLQKPGQSPQLLIYKVSNRFSGVPDRFSGSGSGTDFTLKISRVEAEDVGVYYCFQGSHVPLTFGQGTKLEIKR

— patent US20260272979A1 (CHINEO MEDICAL TECHNOLOGY, published 2026)
